Common to all, as to test: time-resolved fluorescence immunoassay (TR-FIA); plate coated with monoclonal anti-PBX1; PBX1 pre-incubated with PREP1 or MEIS1 for 1 h on ice, 10 µg/mL in 1% BSA PBS, 1 h at room temperature on the plate; detected with anti-PREP1 or biotinylated anti-MEIS1/2 and Eu^3+ conjugates; normalised to the wild-type protein taken as 1
Settings in all cases: both partners purified

The target of one assay is T1, PBX1 I204A (human, UniProt P40424 1-430, I204A).
T1 construct: PBX1, residues 1-430; source: E. coli, purified
T1 sequence (looked up): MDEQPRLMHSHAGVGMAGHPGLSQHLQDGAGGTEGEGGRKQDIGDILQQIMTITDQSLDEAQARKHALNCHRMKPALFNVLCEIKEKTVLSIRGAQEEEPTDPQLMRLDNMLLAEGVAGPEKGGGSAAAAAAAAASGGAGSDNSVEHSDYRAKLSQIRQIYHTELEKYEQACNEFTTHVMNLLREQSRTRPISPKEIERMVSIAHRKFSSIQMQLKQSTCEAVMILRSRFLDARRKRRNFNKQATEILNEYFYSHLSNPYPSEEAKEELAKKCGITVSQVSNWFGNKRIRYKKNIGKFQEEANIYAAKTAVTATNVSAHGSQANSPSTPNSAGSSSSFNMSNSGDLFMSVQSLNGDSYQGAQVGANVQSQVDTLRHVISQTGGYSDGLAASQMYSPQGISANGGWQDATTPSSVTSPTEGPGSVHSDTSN

The next assay addresses T2, PBX1 I211A (human, UniProt P40424 1-430, I211A).
T2 construct: PBX1, residues 1-430; source: E. coli, purified
T2 sequence (looked up): T1 sequence (looked up) with A204I, I211A

Assay [1] deals with T3, PBX1 with substitution of both 204 and 211 residues (I204A/I211A) (human, UniProt P40424 1-430, I204A | I211A).
T3 construct: PBX1, residues 1-430; source: E. coli, purified
T3 sequence (looked up): T1 sequence (looked up) with I211A

In the next assay the target is T4, PREP1 L67A (UniProt P55347 1-436, L67A).
T4 construct: PREP1 (PKNOX1), residues 1-436
T4 sequence (looked up): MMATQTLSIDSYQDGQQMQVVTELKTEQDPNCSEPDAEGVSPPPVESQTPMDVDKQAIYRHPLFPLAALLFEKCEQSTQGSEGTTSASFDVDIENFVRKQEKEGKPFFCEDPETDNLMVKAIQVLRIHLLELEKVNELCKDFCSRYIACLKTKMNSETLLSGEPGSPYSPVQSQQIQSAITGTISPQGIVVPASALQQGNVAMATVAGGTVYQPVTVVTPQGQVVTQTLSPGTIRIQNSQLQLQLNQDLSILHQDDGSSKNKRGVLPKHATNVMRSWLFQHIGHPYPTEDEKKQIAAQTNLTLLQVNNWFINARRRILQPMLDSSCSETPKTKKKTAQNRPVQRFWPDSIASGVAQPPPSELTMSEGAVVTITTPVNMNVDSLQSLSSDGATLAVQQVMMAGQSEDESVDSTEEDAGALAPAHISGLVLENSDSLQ

Changes are numbered by the printed parent chain.

B1: PREP1_(1-436), wild-type recombinant (TR-FIA) (natural protein, UniProt P55347 1-436, looked up)
chain: T4 sequence (looked up) with A67L
notes: also called wild-type PREP1; PKNOX1; source: E. coli, purified
As to B1, the “binding relative to wild type” value in the assay with PBX1 I204A is about 65%; with PBX1 I211A it was about 65%; in assay [1] it was about 50%.

B2: PBX1_(1-430), wild-type recombinant (natural protein, human, UniProt P40424 1-430, looked up)
chain: T1 sequence (looked up) with A204I
notes: also called wild-type PBX1; purified recombinant human PBX1; source: E. coli, purified
With B2, the binding result in the assay with PREP1 L67A was “binds”.
